± gives the standard deviation of the averaged measurements.
B1: library; a variant is named by its letters at N, in order (parent)
chain: GCUGUCACCGAGAAACUGUGAAGUAUAUCUUAAACCUGGGCACUUAAAAGAUAUAUGGAGUUAGUAGUGCAACCUGCUCGGUCUGAUGAGUCCNNNNNNGGACGAAACAGC

Legend:
[1] = variants of: B1; assay: normalized RNA/DNA level without ligand (relative to sTRSVctl = 100) (log10 (% of sTRSVctl)); HEK293T; ligand: cyclic di-GMP (c-di-GMP-II aptamer); higher = less ribozyme self-cleavage, higher mRNA level; details: reporter: mCherry (pCS4076), ligand present: no
Outline: (§1)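 Ribozyme switch library plasmids linked to reporters were introduced into HEK293T cells at 4 µg per 6-well well, with ligand, if any, added 1 h before. Total RNA was extracted with EDTA 72 h later, reverse-transcribed, amplified, barcoded and sequenced. RNA level was computed from RNA over DNA reads relative to a spiked-in non-cleaving sequence or the top sequences, then scaled and log-transformed. The top set was 25 sequences, values were ×100 and log10, and the cutoff was ≥100 DNA reads.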

[2] = variants of: B1; assay: normalized RNA/DNA level with ligand (relative to sTRSVctl = 100) (log10 (% of sTRSVctl)); HEK293T; ligand: cyclic di-GMP (c-di-GMP-II aptamer); ligand concentration (+) RNA-Seq: 1 mM; higher = less ribozyme self-cleavage, higher mRNA level; details: reporter: mCherry (pCS4076), ligand present: yes
Outline: as §1

| Variant | normalized RNA/DNA level without ligand (log10) [1] | normalized RNA/DNA level with ligand (log10) [2] |
| --- | --- | --- |
| CUUGGG | 1.74 ± 0.031 | 1.88 ± 0.13 |
| CUUGGC | 1.79 ± 0.034 | 1.92 ± 0.085 |
| CUUGGU | 1.76 ± 0.031 | 1.84 ± 0.11 |
| AUUUCA | 1.701 ± 0.013 | 1.85 ± 0.12 |
| AUUUCG | 1.66 ± 0.028 | 1.82 ± 0.09 |
| AUUUCC | 1.79 ± 0.019 | 1.9 ± 0.092 |
| AUUUCU | 1.74 ± 0.06 | 1.87 ± 0.12 |
| AUUCGU | 1.79 ± 0.024 | 1.86 ± 0.12 |
| CUUGUC | 1.78 ± 0.048 | 1.89 ± 0.12 |
| CUUGUA | 1.57 ± 0.044 | 1.77 ± 0.12 |
| CUUGUU | 1.72 ± 0.07 | 1.85 ± 0.12 |
| CUUGUG | 1.73 ± 0.03 | 1.91 ± 0.13 |
| GUUUAG | 1.59 ± 0.041 | 1.78 ± 0.091 |
| GUUUAA | 1.54 ± 0.058 | 1.74 ± 0.086 |
| GUUUAC | 1.74 ± 0.029 | 1.84 ± 0.13 |
| CUUUAG | 1.73 ± 0.095 | 1.84 ± 0.19 |
| CUUUAC | 1.73 ± 0.019 | 1.84 ± 0.1 |
| CUUUAU | 1.58 ± 0.047 | 1.79 ± 0.11 |
| AUUUAG | 1.63 ± 0.065 | 1.77 ± 0.077 |
| AUUUAC | 1.733 ± 0.0013 | 1.88 ± 0.1 |
| AUUUAU | 1.74 ± 0.037 | 1.84 ± 0.073 |
| GUUUGU | 1.69 ± 0.022 | 1.84 ± 0.067 |
| CUUCUC | 1.77 ± 0.049 | 1.86 ± 0.14 |
| CUUCUG | 1.78 ± 0.061 | 1.85 ± 0.057 |

| Variant | normalized RNA/DNA level without ligand (log10) [1] | normalized RNA/DNA level with ligand (log10) [2] |
| --- | --- | --- |
| CUUCUU | 1.5858 ± 0.00043 | 1.75 ± 0.2 |
| AUUUGG | 1.56 ± 0.032 | 1.77 ± 0.088 |
| AUUUGA | 1.51 ± 0.052 | 1.75 ± 0.16 |
| AUUUGC | 1.76 ± 0.038 | 1.87 ± 0.12 |
| AUUUGU | 1.66 ± 0.017 | 1.85 ± 0.12 |
| UUUGAC | 1.71 ± 0.03 | 1.87 ± 0.11 |
| UUUGAA | 1.59 ± 0.017 | 1.76 ± 0.1 |
| UUUGAG | 1.71 ± 0.038 | 1.83 ± 0.12 |
| UUUGAU | 1.649 ± 0.014 | 1.82 ± 0.12 |
| CUUGCA | 1.66 ± 0.018 | 1.77 ± 0.1 |
| CUUGCU | 1.76 ± 0.021 | 1.86 ± 0.12 |
| CUUGCG | 1.78 ± 0.02 | 1.86 ± 0.12 |
| CUUGCC | 1.82 ± 0.019 | 1.9 ± 0.077 |
| CUUCGU | 1.8 ± 0.04 | 1.87 ± 0.094 |
| CUUUGC | 1.795 ± 0.017 | 1.88 ± 0.11 |
| CUUUGA | 1.66 ± 0.019 | 1.79 ± 0.11 |
| CUUUGU | 1.78 ± 0.029 | 1.87 ± 0.049 |
| CUUUGG | 1.781 ± 0.0073 | 1.87 ± 0.089 |
| CUUUUC | 1.73 ± 0.022 | 1.85 ± 0.12 |
| CUUUUU | 1.611 ± 0.013 | 1.79 ± 0.11 |
| CUUUUA | 1.42 ± 0.12 | 1.66 ± 0.07 |
| CUUUUG | 1.796 ± 0.016 | 1.92 ± 0.13 |
| CUUUCG | 1.8 ± 0.046 | 1.88 ± 0.05 |
| GUUGAU | 1.61 ± 0.033 | 1.76 ± 0.14 |

| Variant | normalized RNA/DNA level without ligand (log10) [1] | normalized RNA/DNA level with ligand (log10) [2] |
| --- | --- | --- |
| GUUGAA | 1.44 ± 0.083 | 1.65 ± 0.12 |
| GUUGUU | 1.67 ± 0.038 | 1.81 ± 0.098 |
| GUUGUG | 1.66 ± 0.09 | 1.82 ± 0.079 |
| GUUGUA | 1.57 ± 0.024 | 1.77 ± 0.1 |
| GUUGUC | 1.53 ± 0.11 | 1.73 ± 0.087 |
| AUUUUA | 1.62 ± 0.032 | 1.8 ± 0.13 |
| AUUUUU | 1.76 ± 0.03 | 1.89 ± 0.075 |
| AUUUUC | 1.74 ± 0.024 | 1.85 ± 0.092 |
| AUUUUG | 1.68 ± 0.045 | 1.81 ± 0.056 |
| UUUGGC | 1.79 ± 0.033 | 1.9 ± 0.16 |
| UUUGGU | 1.73 ± 0.043 | 1.88 ± 0.066 |
| UUUGGA | 1.65 ± 0.051 | 1.79 ± 0.085 |
| UUUGGG | 1.735 ± 0.0076 | 1.85 ± 0.074 |
| GUUUUA | 1.63 ± 0.032 | 1.82 ± 0.098 |
| GUUUUC | 1.69 ± 0.025 | 1.86 ± 0.09 |
| UUUUUA | 1.77 ± 0.038 | 1.92 ± 0.11 |
| UUUUUG | 1.77 ± 0.028 | 1.87 ± 0.088 |
| UUUUUC | 1.78 ± 0.052 | 1.88 ± 0.14 |
| UUUUUU | 1.77 ± 0.056 | 1.88 ± 0.097 |
| AUUGGG | 1.54 ± 0.16 | 1.75 ± 0.078 |
| AUUGGC | 1.67 ± 0.017 | 1.83 ± 0.076 |
| UUUUAU | 1.7 ± 0.025 | 1.87 ± 0.095 |
| UUUUAA | 1.725 ± 0.014 | 1.86 ± 0.11 |
| UUUUAC | 1.74 ± 0.055 | 1.87 ± 0.14 |

| Variant | normalized RNA/DNA level without ligand (log10) [1] | normalized RNA/DNA level with ligand (log10) [2] |
| --- | --- | --- |
| UUUUAG | 1.74 ± 0.022 | 1.89 ± 0.065 |
| UUUUCC | 1.84 ± 0.058 | 1.89 ± 0.16 |
| UUUUCA | 1.8 ± 0.025 | 1.91 ± 0.12 |
| UUUUCU | 1.78 ± 0.071 | 1.9 ± 0.12 |
| AUUGAC | 1.663 ± 0.0079 | 1.79 ± 0.15 |
| AUUGAU | 1.63 ± 0.029 | 1.79 ± 0.061 |
| AUUGAG | 1.57 ± 0.018 | 1.7 ± 0.13 |
| AUUCUG | 1.68 ± 0.071 | 1.81 ± 0.11 |
| AUUCUC | 1.806 ± 0.0079 | 1.89 ± 0.1 |
| AUUCUA | 1.595 ± 0.0027 | 1.78 ± 0.13 |
| AUUCUU | 1.72 ± 0.052 | 1.88 ± 0.11 |
| GUUCUU | 1.7 ± 0.084 | 1.84 ± 0.12 |
| GUUCUC | 1.75 ± 0.035 | 1.88 ± 0.068 |
| GUUGGU | 1.611 ± 0.011 | 1.77 ± 0.1 |
| GUUGGC | 1.61 ± 0.022 | 1.79 ± 0.09 |
| GUUGGG | 1.6 ± 0.1 | 1.76 ± 0.065 |
| GUUGGA | 1.56 ± 0.097 | 1.72 ± 0.077 |
| UUUGUC | 1.795 ± 0.011 | 1.9 ± 0.11 |
| UUUGUG | 1.72 ± 0.042 | 1.91 ± 0.05 |
| GUUGCC | 1.76 ± 0.013 | 1.87 ± 0.1 |
| GUUGCU | 1.7 ± 0.039 | 1.84 ± 0.1 |
| GUUGCA | 1.81 ± 0.038 | 1.87 ± 0.1 |
| AUUGUG | 1.605 ± 0.014 | 1.84 ± 0.11 |
| AUUGUC | 1.73 ± 0.053 | 1.85 ± 0.15 |

| Variant | normalized RNA/DNA level without ligand (log10) [1] | normalized RNA/DNA level with ligand (log10) [2] |
| --- | --- | --- |
| AUUGUU | 1.59 ± 0.025 | 1.77 ± 0.12 |
| UUUCGU | 1.72 ± 0.025 | 1.86 ± 0.083 |
| AUUGCA | 1.67 ± 0.055 | 1.81 ± 0.095 |
| AUUGCU | 1.73 ± 0.047 | 1.88 ± 0.081 |
| AUUGCG | 1.713 ± 0.012 | 1.83 ± 0.09 |
| UUUUGA | 1.74 ± 0.062 | 1.89 ± 0.2 |
| UUUUGU | 1.74 ± 0.035 | 1.87 ± 0.15 |
| UUUUGC | 1.76 ± 0.045 | 1.85 ± 0.11 |
| UUUUGG | 1.82 ± 0.05 | 1.93 ± 0.13 |
| GUUUCA | 1.648 ± 0.0058 | 1.79 ± 0.12 |
| GUUUCC | 1.82 ± 0.07 | 1.88 ± 0.15 |
| GUUUCU | 1.711 ± 0.014 | 1.86 ± 0.097 |
| GUUUCG | 1.71 ± 0.051 | 1.85 ± 0.099 |
| UUUGCA | 1.78 ± 0.018 | 1.85 ± 0.1 |
| UUUGCG | 1.78 ± 0.066 | 1.88 ± 0.12 |
| UUUGCC | 1.838 ± 0.011 | 1.89 ± 0.079 |
| UUUGCU | 1.76 ± 0.057 | 1.88 ± 0.14 |
| UUUCUG | 1.795 ± 0.012 | 1.92 ± 0.091 |
| UUUCUC | 1.8 ± 0.024 | 1.92 ± 0.085 |
| CUUGAU | 1.66 ± 0.023 | 1.82 ± 0.13 |
| CUUGAG | 1.68 ± 0.017 | 1.79 ± 0.09 |

Source: the supplement of paper PMC6757056
